Literature values, collected in publication PMC11853434.
Where two headings read alike, the source gives them in different places.

Key:
[1] = molecular target: SARS-CoV-2 spike RBD RBD (Severe acute respiratory syndrome coronavirus 2) (UniProt P0DTC2)
[2] = molecular target: SARS-CoV-2 spike RBD RBD (Severe acute respiratory syndrome coronavirus 2) (UniProt P0DTC2); remark: listed apart in the source

Row | Substance | Kd [1] [nM] | Kd [2] [nM]
1 | casirivimab | 3.37 | 
2 | imdevimab |  | 45.2
